Target: cdPadR1 (Clostridium difficile R20291, UniProt A0A9R0CDW8 1-109)
Experiment: EMSA; 20 mM Tris pH 8.0, 120 mM KCl, 10 mM MgCl2, 5 mM DTT, 12.5% glycerol, 125 ug/mL heparin, room temperature
Conditions: protein: recombinant; tags: N-terminal Strep II; chain copies: 2

Row | Binder | binding result
1 | Pr88 (dsDNA) DNA 1: GTACTATGTATTATTATAGTAA DNA 2: TTACTATAATAATACATAGTAC | no binding
2 | Pr32 (dsDNA) DNA 1: TGTATTATAGAGTACTATGTATTATTATAGTAAATATAAGTACTATACATTATAGAGTAGTAGG DNA 2: CCTACTACTCTATAATGTATAGTACTTATATTTACTATAATAATACATAGTACTCTATAATACA | binds
3 | Pr41 (dsDNA) DNA 1: TACTATACATTATAGAGTAGTA DNA 2: TACTACTCTATAATGTATAGTA | binds
4 | Pr122 (dsDNA) DNA 1: TAGAGTACTATGTATTATTATAGTAAATAT DNA 2: ATATTTACTATAATAATACATAGTACTCTA | binds
5 | Pr34 (dsDNA) DNA 1: TTTGATGAAAAAAATGTTACAATATTTAATATTGAAAATGGCGATGTTATTAGCATAGAGAATGGAGGAAATTAAATGAAACAAGAATACGGTGCAAGTC DNA 2: GACTTGCACCGTATTCTTGTTTCATTTAATTTCCTCCATTCTCTATGCTAATAACATCGCCATTTTCAATATTAAATATTGTAACATTTTTTTCATCAAA | binds
6 | Pr104 (dsDNA) DNA 1: AGGTGAATGAAACAAAAGATGTCATGATAAGTCATGTAAAACAATAGTTT DNA 2: AAACTATTGTTTTACATGACTTATCATGACATCTTTTGTTTCATTCACCT | binds
7 | Pr69 (dsDNA) DNA 1: ATGCTATAATTTTATCACTATGGTACTATATTACAATAATGCACTTTTTTGTAATATAGTATCTAAAAAGATACTTTAAAATAAATAAAGGAGCTCAAAA DNA 2: TTTTGAGCTCCTTTATTTATTTTAAAGTATCTTTTTAGATACTATATTACAAAAAAGTGCATTATTGTAATATAGTACCATAGTGATAAAATTATAGCAT | binds
8 | Pr96 (dsDNA) DNA 1: AAGTAACATACCCAATTTTGAGGT DNA 2: ACCTCAAAATTGGGTATGTTACTT | no binding
9 | Pr67 (dsDNA) DNA 1: AGTACTATACATTATAGAGTAGT DNA 2: ACTACTCTATAATGTATAGTACT | binds
10 | Pr97 (dsDNA) DNA 1: TTACTTATATAATGATAAATTTTAGGAG DNA 2: CTCCTAAAATTTATCATTATATAAGTAA | no binding
11 | Pr31 (dsDNA) DNA 1: AATATAAGTACTATACATTATAGAGTAGTAGGTGAAAAGGCGGTGGTACATAATGCAGTTA DNA 2: TAACTGCATTATGTACCACCGCCTTTTCACCTACTACTCTATAATGTATAGTACTTATATT | binds
12 | Pr94 (dsDNA) DNA 1: AATGAAACAAAAGATGTCATG DNA 2: CATGACATCTTTTGTTTCATT | no binding
13 | Pr112 (dsDNA) DNA 1: ATATTTTAGTTATATTTTTGATAGAAAATATTTTATCGTGTATAATACTACTTATAAATAAGAATAAAAATAAAGAGCTTGTTTGGAGGAATTTTAATAA DNA 2: TTATTAAAATTCCTCCAAACAAGCTCTTTATTTTTATTCTTATTTATAAGTAGTATTATACACGATAAAATATTTTCTATCAAAAATATAACTAAAATAT | binds
14 | Pr27 (PcdpadR1) (dsDNA) DNA 1: TAAACCTTGTATTATAGAGTACTATGTATTATTATAGTAAATATAAGTACTATACATTATAGAGTAGTAGGTGAAAAGGCGGTGGTACATAATGCAGTTA DNA 2: TAACTGCATTATGTACCACCGCCTTTTCACCTACTACTCTATAATGTATAGTACTTATATTTACTATAATAATACATAGTACTCTATAATACAAGGTTTA | binds
15 | Pr53 (dsDNA) DNA 1: AATATAAGTACTATACATTATAGAG DNA 2: CTCTATAATGTATAGTACTTATATT | no binding
16 | Pr30 (dsDNA) DNA 1: TATAGTAAATATAAGTACTATACATTATAGAGTAGTAGGTGAAAAGGCGGTGGTACATAATGCAGTTA DNA 2: TAACTGCATTATGTACCACCGCCTTTTCACCTACTACTCTATAATGTATAGTACTTATATTTACTATA | binds
17 | Pr43 (dsDNA) DNA 1: CTATGTATTATTATAGTAAATATAAGTACTATACATTA DNA 2: TAATGTATAGTACTTATATTTACTATAATAATACATAG | no binding

Row | Binder | binding result
18 | Pr114 (dsDNA) DNA 1: ATATTTTATAATTAATAATTGTAATGCCGCACAGTAAAGGTTTAAATCTTCAAATGAAGTACCTTGTACTGGCGAGTTTGAGGCCGAGGAGGTGTATTTA DNA 2: TAAATACACCTCCTCGGCCTCAAACTCGCCAGTACAAGGTACTTCATTTGAAGATTTAAACCTTTACTGTGCGGCATTACAATTATTAATTATAAAATAT | no binding
19 | Pr35 (dsDNA) DNA 1: CATTTAAAGAATGGGATATTATGTAATTGTAGATTATGTAGGTTTAAATTATTTATTTTTGTTTTAGCAAATTCTATGAATAGAAGGGGTTTGATTATGG DNA 2: CCATAATCAAACCCCTTCTATTCATAGAATTTGCTAAAACAAAAATAAATAATTTAAACCTACATAATCTACAATTACATAATATCCCATTCTTTAAATG | binds
20 | Pr42 (dsDNA) DNA 1: CTATACATTATAG DNA 2: CTATAATGTATAG | no binding
21 | Pr33 (dsDNA) DNA 1: GAGTACTATGTATTATTATAGTAAATATAAGTACTATACATTATAGAGTAGTAG DNA 2: CTACTACTCTATAATGTATAGTACTTATATTTACTATAATAATACATAGTACTC | binds
22 | Pr54 (dsDNA) DNA 1: GTAAATATAAGTACTATACATTATAGAGTAG DNA 2: CTACTCTATAATGTATAGTACTTATATTTAC | binds
23 | Pr105 (dsDNA) DNA 1: AAAAGATGTCATGATAAGTCATGTAA DNA 2: TTACATGACTTATCATGACATCTTTT | no binding
24 | Pr48 (PnorV) (dsDNA) DNA 1: TTTTAACCCTCCTAAAATTTATCATTATATAAGTAACATACCCAATTTTGAGGTGAATGAAACAAAAGATGTCATGATAAGTCATGTAAAACAATAGTTT DNA 2: AAACTATTGTTTTACATGACTTATCATGACATCTTTTGTTTCATTCACCTCAAAATTGGGTATGTTACTTATATAATGATAAATTTTAGGAGGGTTAAAA | binds
25 | Pr68 (dsDNA) DNA 1: GTACTATACATTATAGAGTAG DNA 2: CTACTCTATAATGTATAGTAC | binds
26 | Pr106 (dsDNA) DNA 1: AAAATTTATCATTATATAAGTAACATAC DNA 2: GTATGTTACTTATATAATGATAAATTTT | no binding
27 | Pr121 (dsDNA) DNA 1: AAGCTACCTTGCATAAATATCTTGGATAGTATATTGATTATATAATCAGTAAATGTTATACTTTTCATGACGATAAAAACATTTTAGTCATAAGGGGGTT DNA 2: AACCCCCTTATGACTAAAATGTTTTTATCGTCATGAAAAGTATAACATTTACTGATTATATAATCAATATACTATCCAAGATATTTATGCAAGGTAGCTT | binds
28 | Pr103 (dsDNA) DNA 1: TATATAAGTAACATACCCAATTTTGAGGTGAATGAAACAAAAGATGTCAT DNA 2: ATGACATCTTTTGTTTCATTCACCTCAAAATTGGGTATGTTACTTATATA | no binding
29 | Pr120 (dsDNA) DNA 1: TTTTTATTCCTCCCTTTTTATTTATTAAAATTTATTATATTTTTCTATGATTCACTTAATTAAATTTCTCCATCTACAATTTTTCCATCTACAGATATAG DNA 2: CTATATCTGTAGATGGAAAAATTGTAGATGGAGAAATTTAATTAAGTGAATCATAGAAAAATATAATAAATTTTAATAAATAAAAAGGGAGGAATAAAAA | binds
30 | Pr111 (dsDNA) DNA 1: ATATAGGAAATATAGAACAGATTTTCCAAGAAATCTAAATATTCTATGACCACGTGAATTGCTATGCACACATGTTGATAATCCATATTTTAAATCTAAA DNA 2: TTTAGATTTAAAATATGGATTATCAACATGTGTGCATAGCAATTCACGTGGTCATAGAATATTTAGATTTCTTGGAAAATCTGTTCTATATTTCCTATAT | binds
31 | Pr29 (dsDNA) DNA 1: TAAACCTTGTATTATAGAGTACTATGTATTATTATAGTAAATATAAGTACTATACATTATAGAG DNA 2: CTCTATAATGTATAGTACTTATATTTACTATAATAATACATAGTACTCTATAATACAAGGTTTA | binds
32 | Pr70 (dsDNA) DNA 1: TTATTTACCCCCTATTGTTTTATTAGGCTAAGTTGATGATTTATTTAACCTATGCTATAATTTTATCACTATGGTACTATATTACAATAATGCACTTTTT DNA 2: AAAAAGTGCATTATTGTAATATAGTACCATAGTGATAAAATTATAGCATAGGTTAAATAAATCATCAACTTAGCCTAATAAAACAATAGGGGGTAAATAA | binds
33 | Pr95 (dsDNA) DNA 1: TAAAATTTATCATTATATAAGTAA DNA 2: TTACTTATATAATGATAAATTTTA | no binding
34 | Pr102 (dsDNA) DNA 1: TTTTAACCCTCCTAAAATTTATCATTATATAAGTAACATACCCAATTTTG DNA 2: CAAAATTGGGTATGTTACTTATATAATGATAAATTTTAGGAGGGTTAAAA | binds

From publication PMC5050560
